Data taken from PMC5923229, “The cysteine-reactive small molecule ebselen facilitates effective SOD1 maturation” (Nature Communications, 2018).

B1: artificial disulphide knockout SOD1 mutant C57A/C146A (enzyme)
chain: not shown
notes: superoxide dismutase-1 (SOD1), C57A/C146A; also called ebselen-free SOD1; source: E. coli BL21 (DE3), purified (diethylaminoethyl cellulose); treated with DMSO
B2: copper chaperone for SOD1 (hCCS), wild-type (natural protein, UniProt O14618 1-274, looked up)
chain: MASDSGNQGTLCTLEFAVQMTCQSCVDAVRKSLQGVAGVQDVEVHLEDQMVLVHTTLPSQEVQALLEGTGRQAVLKGMGSGQLQNLGAAVAILGGPGTVQGVVRFLQLTPERCLIEGTIDGLEPGLHGLHVHQYGDLTNNCNSCGNHFNPDGASHGGPQDSDRHRGDLGNVRADADGRAIFRMEDEQLKVWDVIGRSLIIDEGEDDLGRGGHPLSKITGNSGERLACGIIARSAGLFQNPKQICSCDGLTIWEERGRPIAGKGRKESAQPPAHL
notes: copper chaperone for SOD1 (hCCS), wild type; Desalted into ligand-free, nitrogen-purged buffer

Columns and labels:
[1] = biological target: B2; assay: SEC; C57A/C146A SOD1 with or without ebselen (25 uM SOD1, 100 uM ebselen, 3 h, 20 C) and hCCS; complex formed with 250 pmol of both SOD1 and hCCS; conditions: both partners purified
[2] = biological target: the molecule itself; assay: as above

Binder	binding result [1]	stoichiometry N [2]
B1	binds	
B2		2
